For 6 molecules, ELISA (absorbance units) (absorbance units) results are on record in patent publication US20060240570A1.

Positions of bridges follow the written chain, without caps; N, C: chain ends. No end group written: not given here.

Experiment [1] concerns the target unrelated control antibody. The experiment is described as follows: phage ELISA, 10^8 phagemid, wells coated with control mAb. In general terms: ELISA stands for enzyme-linked immunosorbent assay.
For experiment [2], the target named is unrelated control antibody. The experiment is described as follows: phage ELISA, 10^9 phagemid, wells coated with control mAb.
Experiment [3] deals with unrelated control antibody. The experiment is described as follows: phage ELISA, 10^10 phagemid, wells coated with control mAb.

With CSGLYPWDMFRCS (disulfide 1-12 (inferred); also: displayed on phagemid) [phagemid CS1-9p, displayed peptide …], the ELISA (absorbance units) (absorbance units) in experiment [1] turned out to be 0.209; in experiment [2], 0.204; in experiment [3], 0.213.
On to CSLFYLWDQDRCS (disulfide 1-12 (inferred); also: displayed on phagemid) [phagemid CS1-2p, displayed peptide …], for which the values for the ELISA (absorbance units) (absorbance units) in experiment [1], in experiment [2] and in experiment [3] were 0.188, 0.199 and 0.228, respectively.

B1: phagemid CS1-31p, displayed peptide … (peptide)
peptide: CSFFYSLCYCWCS
modifications: disulfide (positions not given here); also: disulfide pairing among 4 Cys not given here, displayed on phagemid
As for B1, the ELISA (absorbance units) (absorbance units) in experiment [1] is 0.116; in experiment [2], 0.118; in experiment [3], 0.125.
For CSFRYLWDQDRCS (disulfide 1-12 (inferred); also: displayed on phagemid) [phagemid CS1-6p, displayed peptide …] the same measures were 0.173, 0.172 and 0.203.
Regarding CSFRYQWDMFRCS (disulfide 1-12 (inferred); also: displayed on phagemid) [phagemid CS1-11p, displayed peptide …], the figures for the ELISA (absorbance units) (absorbance units) in experiment [1], in experiment [2] and in experiment [3] were 0.252, 0.258 and 0.242, respectively.
For the molecule CSGLYPWDYFMCS (disulfide 1-12 (inferred); also: displayed on phagemid) [phagemid CS1-29p, displayed peptide …], the ELISA (absorbance units) (absorbance units) in experiment [1] was determined as 0.125; in experiment [2] it was 0.147; in experiment [3] it was 0.148.
